Patent publication US20170240628A1 (CELLMID, published 2017)

T1: recombinant murine midkine (muMK) (murine, UniProt P12025 23-140)
T1 construct: also called murine MK; Murine MK
T1 sequence (looked up): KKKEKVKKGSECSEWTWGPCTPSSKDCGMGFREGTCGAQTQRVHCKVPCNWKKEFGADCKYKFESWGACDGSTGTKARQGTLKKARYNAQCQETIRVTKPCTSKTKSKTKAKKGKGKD

T2: recombinant human midkine (huMK) (human, UniProt P21741 21-143)
T2 construct: also called human MK; Human MK
T2 sequence (looked up): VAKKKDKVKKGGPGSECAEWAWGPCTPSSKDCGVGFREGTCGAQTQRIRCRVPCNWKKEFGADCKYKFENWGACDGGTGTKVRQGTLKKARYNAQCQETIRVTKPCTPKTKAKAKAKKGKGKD


Assays:
[1] = target: T1, recombinant murine midkine (muMK); assay: ELISA on plate-coated muMK, antibody titrated up to 3 µg/ml, Abs 450nm on the sheet's axis [continued), panel IP14 Hv3 Murine Midkine]
Description: The binding specificity and affinity of the humanised anti-MK antibodies to recombinant human MK (huMK) and murine MK (muMK) was assessed by ELISA. ELISA plates (Nunc Immuno MaxiSorp 96 well flat-bottom were coated with 100 uL of 2 ug/mL of either huMK or muMK in 2% BSA/PBS (overnight at room temperature). After washing, blocking (1 h at 37° C.), and washing again, the humanised anti-MK and chimeric antibodies described in Example 1 were analysed for binding to huMK or muMK at concentrations ranging between 3 μg/ml and 0.00004 μg/ml in 2% BSA/PBS (1 h at 37° C.). After washing, the binding of antibody was detected with goat anti-mouse IgG (Fab specific)-HRP conjugate (Sigma, Cat. No. A9917) and SigmaFast OPD substrate (Sigma, Cat. No. P9187). […] Binding affinity data for the humanised anti-MK antibodies to huMK and muMK are presented in Table 6 and Table 7 respectively, and in FIG. 3.

[2] = target: T2, recombinant human midkine (huMK); assay: ELISA, plate coated with huMK
Description: (§1) The binding specificity and affinity of the humanised anti-MK antibodies to recombinant human MK (huMK) and murine MK (muMK) was assessed by ELISA. ELISA plates (Nunc Immuno MaxiSorp 96 well flat-bottom were coated with 100 uL of 2 ug/mL of either huMK or muMK in 2% BSA/PBS (overnight at room temperature). After washing, blocking (1 h at 37° C.), and washing again, the humanised anti-MK and chimeric antibodies described in Example 1 were analysed for binding to huMK or muMK at concentrations ranging between 3 μg/ml and 0.00004 μg/ml in 2% BSA/PBS (1 h at 37° C.). After washing, the binding of antibody was detected with goat anti-mouse IgG (Fab specific)-HRP conjugate (Sigma, Cat. No. A9917) and SigmaFast OPD substrate (Sigma, Cat. No. P9187). The reaction was stopped with 3 M HCl, absorbance read at 490 nm on a Dynex Technologies MRX TC II plate reader and the binding curves plotted. Binding affinity data for the humanised anti-MK antibodies to huMK and muMK are presented in Table 6 and Table 7 respectively, and in FIG. 3.

[3] = target: T1, recombinant murine midkine (muMK); assay: ELISA, plate coated with muMK
Description: as §1

[4] = target: T2, recombinant human midkine (huMK); assay: cell-based or functional assay
[5] = target: T2, recombinant human midkine (huMK); assay: ELISA by the methods of Example 2 (printed as KD)
Description: as §1
(§2) KD values for hIP14-H5L8, hIP14-H6L3 and hIP14-H6L8 was then compared with the KD values obtained for the corresponding murine IP14 precursor antibody and the chimeric antibody using the methods described in Example 2. As is apparent from Table 7, the humanised mIP14 antibodies designated hIP14-H5L8, hIP14-H6L3, and hIP14-H6L8 were each shown to have better binding affinity than the murine IP14 precursor antibody and the chimeric antibody for huMK and muMK. Based on this finding, these candidate antibodies were produced to 100 mg scale to enable further testing in functional assays to determine biological function.

[6] = target: T1, recombinant murine midkine (muMK); assay: ELISA by the methods of Example 2 (printed as KD)
Description: as §1, §2

Binder	binding result [1]	EC50 [2] [nM]	EC50 [3] [nM]	% Inhibition of UMR106 cell migration, Assay 4 [4] [%]	% Inhibition of UMR106 cell migration, Assay 5 [4] [%]	% Inhibition of UMR106 cell migration, Assay 6 [4] [%]	Mean % Inhibition of UMR106 cell migration [4] [%]	Mean Cells/Field, Assay 4 (UMR106 migration, antibody 100 ug/mL, MK-17 20 µg/mL) [4] [cells/field]	Mean Cells/Field, Assay 5 (UMR106 migration, antibody 100 ug/mL, MK-17 20 µg/mL) [4] [cells/field]	Mean Cells/Field, Assay 6 (UMR106 migration, antibody 100 ug/mL, MK-17 20 µg/mL) [4] [cells/field]	Kd [5] [nM]	Kd [6] [nM]
IP14-H3L6 (antibody, V domains shown, also called Hv3 Lv6) VH: QVQLVQSGAEVKKPGASVKVSCKASGQSFSSYWMNWVRQAPGQGLEWMGMIHPSDSETILNQKFKDKVTMTRDTSTSTVYMELSSLRSEDTAVYYCARWSAKRGDFWGQGTLVTVSS VL: EIVLTQSPSTLSASVGDRVNITCRASESISNNLHWYQQKPHKAPKLLIYYASQSISGVPSRFSGSGSGTEFNLTISSVQPDDFATYYCQQSNSWPLTFGQGTKVEIKR	binds	5.7										
IP14-H6L7 (antibody, V domains shown, also called Hv6 Lv7) VH: QVQLVQSGGGLVKPGHSLRLSCAASGQSFSSYWMNWVRQAPGKGLEWIGMIHPSDSETILNQKFKDKATLSVDIAKNSAYLQMNSLRAEDTAVYYCSSWSAKRGDFWGQGTLVTVSS VL: DIVLTQSPATLSLSPGERANLSCRASESISNNLHWYQQKPHQAPRLLIYYASQSISGVPARFSGSGSGTDFNLTISSVEPEDFAVYYCQQSNSWPLTFGQGTKVEIKR		0.068	0.051									
IP14-H3L3 (antibody, V domains shown, also called Hv3 Lv3) VH: QVQLVQSGAEVKKPGASVKVSCKASGQSFSSYWMNWVRQAPGQGLEWMGMIHPSDSETILNQKFKDKVTMTRDTSTSTVYMELSSLRSEDTAVYYCARWSAKRGDFWGQGTLVTVSS VL: DIVLTQSPATLSLSPGERATLSCRASESISNNLHWYQQKPGQAPRLLIYYASQSISGIPARFSGSGPGTDFTLTISSLEPEDFAVYYCQQSNSWPLTFGGGTKLEIKR	binds	5.79										
murine IP14 precursor antibody (antibody, V domains shown, Murine monoclonal antibody; also called mIP14; mAb IP14) VH: QVQLQQPGAELVRPGHSVKLSCKASGQSFSSYWMNWVRQRPGQGLEWIGMIHPSDSETILNQKFKDKATLTVDISSNTAYMQLSSPTSEDSAVYFCSSWSAKRGDFWGQGTTLTVSS VL: DIVLTQSPATLSVTPGDSVNLSCRASESISNNLHWYQQKSHESPRLLIKYASQSISGIPSRFSGSGSGTDFNLSVNSVETEDFGMYFCQQSNSWPLTFGAGTKLELKR				6	10	38	18	45	38	26	0.144	0.166
mouse-human chimeric IP14 antibody (antibody, V domains shown, also called chimeric antibody; Hv0 Lv0) VH: QVQLQQPGAELVRPGHSVKLSCKASGQSFSSYWMNWVRQRPGQGLEWIGMIHPSDSETILNQKFKDKATLTVDISSNTAYMQLSSPTSEDSAVYFCSSWSAKRGDFWGQGTTLTVSS VL: DIVLTQSPATLSVTPGDSVNLSCRASESISNNLHWYQQKSHESPRLLIKYASQSISGIPSRFSGSGSGTDFNLSVNSVETEDFGMYFCQQSNSWPLTFGAGTKLELKR		0.104	0.13								0.104	0.13

The remaining binders from weak to strong by EC50 [2], led by results:

binding result [1]	EC50 [2] [nM]	EC50 [3] [nM]	% Inhibition of UMR106 cell migration, Assay 4 [4] [%]	% Inhibition of UMR106 cell migration, Assay 5 [4] [%]	% Inhibition of UMR106 cell migration, Assay 6 [4] [%]	Mean % Inhibition of UMR106 cell migration [4] [%]	Mean Cells/Field, Assay 4 (UMR106 migration, antibody 100 ug/mL, MK-17 20 µg/mL) [4] [cells/field]	Mean Cells/Field, Assay 5 (UMR106 migration, antibody 100 ug/mL, MK-17 20 µg/mL) [4] [cells/field]	Mean Cells/Field, Assay 6 (UMR106 migration, antibody 100 ug/mL, MK-17 20 µg/mL) [4] [cells/field]	Kd [5] [nM]	Kd [6] [nM]	Binder
	0.07	0.048	48	40	45	44.3	25	25	23	0.07	0.048	IP14-H6L3 (antibody, V domains shown, also called hIP14-H6L3; Hv6 Lv3) VH: QVQLVQSGGGLVKPGHSLRLSCAASGQSFSSYWMNWVRQAPGKGLEWIGMIHPSDSETILNQKFKDKATLSVDIAKNSAYLQMNSLRAEDTAVYYCSSWSAKRGDFWGQGTLVTVSS VL: DIVLTQSPATLSLSPGERATLSCRASESISNNLHWYQQKPGQAPRLLIYYASQSISGIPARFSGSGPGTDFTLTISSLEPEDFAVYYCQQSNSWPLTFGGGTKLEIKR
	0.06	0.05	60	31	31	40.7	19	29	29	0.06	0.05	IP14-H5L8 (antibody, V domains shown, also called hIP14-H5L8; Hv5 Lv8) VH: QVQLVQSGGGLVQPGGSLRLSCAASGQSFSSYWMNWVRQAPGQGLEWIGMIHPSDSETILNQKFKDKATLTVDISKNTAYLQMNSLRAEDTAVYYCSSWSAKRGDFWGQGTLVTVSS VL: DIVLTQSPATLSLSPGERATLSCRASESISNNLHWYQQKPHQAPRLLIYYASQSISGVPARFSGSGSGTDFTLTISSVEPEDFAVYYCQQSNSWPLTFGQGTKVEIKR
	0.042	0.091	44	24	48	38.7	27	32	22	0.042	0.091	IP14-H6L8 (antibody, V domains shown, also called hIP14-H6L8; Hv6 Lv8) VH: QVQLVQSGGGLVKPGHSLRLSCAASGQSFSSYWMNWVRQAPGKGLEWIGMIHPSDSETILNQKFKDKATLSVDIAKNSAYLQMNSLRAEDTAVYYCSSWSAKRGDFWGQGTLVTVSS VL: DIVLTQSPATLSLSPGERATLSCRASESISNNLHWYQQKPHQAPRLLIYYASQSISGVPARFSGSGSGTDFTLTISSVEPEDFAVYYCQQSNSWPLTFGQGTKVEIKR
